Test results: publication PMC11651300 (Journal of the American Society for Mass Spectrometry, 2024)

Experiments:
[1] = target: Pyruvate kinase from rabbit (rabbit) (UniProt P11974); assay: native MS
native MS = target: the molecule itself; assay: native MS

Pyruvate kinase from rabbit, sequence (P11974 whole entry): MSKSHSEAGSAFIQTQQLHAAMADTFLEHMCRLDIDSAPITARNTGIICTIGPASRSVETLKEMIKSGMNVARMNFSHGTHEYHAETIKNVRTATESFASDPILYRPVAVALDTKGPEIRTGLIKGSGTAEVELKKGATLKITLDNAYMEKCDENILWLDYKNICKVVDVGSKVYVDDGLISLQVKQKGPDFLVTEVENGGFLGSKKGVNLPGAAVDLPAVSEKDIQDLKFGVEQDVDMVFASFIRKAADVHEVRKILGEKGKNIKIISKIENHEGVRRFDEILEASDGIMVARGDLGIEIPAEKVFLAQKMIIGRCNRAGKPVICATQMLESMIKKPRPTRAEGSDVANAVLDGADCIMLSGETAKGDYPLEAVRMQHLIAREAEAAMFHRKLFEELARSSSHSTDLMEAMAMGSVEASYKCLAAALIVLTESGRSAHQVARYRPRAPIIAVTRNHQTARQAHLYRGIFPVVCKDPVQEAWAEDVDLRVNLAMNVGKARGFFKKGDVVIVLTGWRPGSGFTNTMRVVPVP

Row | Molecule | stoichiometry N [1] | stoichiometry N (native MS)
1 | Pyruvate kinase from rabbit (from UniProt P11974 1-531) (enzyme) | 4 | 
2 | Cholera toxin B (natural protein) TPQNITDLCAEYHNTQIYTLNDKIFSYTESLAGKREMAIITFKNGAIFQVEVPGSQHIDSQKKAIERMKDTLRIAYLTEAKVEKLCVWNNKTPHAIAAISMAN |  | 5
